Assay results reported in US20220387557A1 (OXFORD UNIVERSITY INNOVATION, published 2022).

T1: Fc tagged human TNFR2 (Sino Biological) (human, UniProt P20333 23-257)
T1 construct: Bought reagent; also called hTNFR2; hTNFR2-Fc; not shown: Fc tag of the bought protein
T1 sequence (looked up): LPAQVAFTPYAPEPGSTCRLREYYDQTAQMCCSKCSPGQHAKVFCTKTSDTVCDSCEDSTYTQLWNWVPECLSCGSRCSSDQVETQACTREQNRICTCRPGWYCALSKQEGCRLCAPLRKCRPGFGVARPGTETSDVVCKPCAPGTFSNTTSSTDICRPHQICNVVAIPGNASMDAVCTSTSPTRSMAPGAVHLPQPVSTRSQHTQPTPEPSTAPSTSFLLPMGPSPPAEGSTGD

T2: Fc tagged mouse TNFR2 (Sino Biological) (mouse, UniProt P25119 23-258)
T2 construct: Bought reagent; also called mTNFR2; mTNF2; not shown: Fc tag of the bought protein
T2 sequence (looked up): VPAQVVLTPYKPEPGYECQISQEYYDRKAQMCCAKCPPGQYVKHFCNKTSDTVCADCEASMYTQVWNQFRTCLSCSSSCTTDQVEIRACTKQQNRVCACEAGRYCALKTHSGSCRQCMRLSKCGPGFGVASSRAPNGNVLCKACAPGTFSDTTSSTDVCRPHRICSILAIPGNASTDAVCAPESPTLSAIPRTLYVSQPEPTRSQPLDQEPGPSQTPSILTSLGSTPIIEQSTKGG

T3: Fc tagged human TNFR1 (Sino Biological) (human, UniProt P19438 22-211, limits assumed)
T3 construct: Bought reagent; also called hTNFR1; hTNFR1-Fc; not shown: Fc tag of the bought protein
T3 sequence (looked up): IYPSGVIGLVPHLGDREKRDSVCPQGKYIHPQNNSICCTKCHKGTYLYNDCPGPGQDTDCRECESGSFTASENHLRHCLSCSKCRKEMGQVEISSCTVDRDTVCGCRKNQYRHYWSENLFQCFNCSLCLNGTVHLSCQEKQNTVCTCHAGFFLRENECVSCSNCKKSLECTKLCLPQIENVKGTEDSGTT

T4: Fc tagged mouse TNFR1 (Sino Biological) (mouse, UniProt P25118 22-212, limits assumed)
T4 construct: Bought reagent; also called mTNFR1; mTNFR1-Fc; not shown: Fc tag of the bought protein
T4 sequence (looked up): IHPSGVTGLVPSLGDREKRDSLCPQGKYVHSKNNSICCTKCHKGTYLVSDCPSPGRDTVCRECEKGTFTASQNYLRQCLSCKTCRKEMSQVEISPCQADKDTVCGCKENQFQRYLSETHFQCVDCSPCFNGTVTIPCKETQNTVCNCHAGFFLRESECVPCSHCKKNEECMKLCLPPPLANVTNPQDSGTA


How the values were obtained:
[1] = molecular target: T1, Fc tagged human TNFR2 (Sino Biological); assay: SPR (Biacore T200) single cycle kinetics, Fc-tagged receptor captured on Protein A chip, TNF protein as analyte at 1.67-15 nM
Method: (§1) Single cycle kinetic analysis was performed using a Biacore T200 (serial no. 1909913) running Biacore T200 Evaluation Software V2.0.1 (Uppsala, Sweden). All experiments were run at 25° C. with HBS-P+ running buffer (pH 7.4) (GE Healthcare, Little Chalfont, UK).
(§2) Due to the limit in the number of available flow cells for analysis (three Fc per analysis, Fc2, Fc3 and Fc4, with Fc1 always being used as blank reference for non-specific subtraction), receptor binding was assessed in two separate overlapping runs using either: hTNFR1 (Fc2), hTNFR2 (Fc3) and mTNFR1 (Fc4), or; hTNFR1 (Fc2), […] and mTNFR2 (Fc4). Receptors were diluted in running buffer to a concentration of ˜4 μg/mL and at the start of each cycle loaded onto Fc2, Fc3 and Fc4 of a Protein A chip (GE Healthcare, Little Chalfont, UK) at a flow rate of 10 μL/min to give an RU of 40-100. The surface was then allowed to stabilise. Single cycle kinetic data was obtained at a flow rate of 45 μL/min. […] The association phase for the three injections of increasing concentrations of TNF was monitored for 240 seconds and a single dissociation phase was measured for 2700 seconds following the last injection of TNF. Regeneration of the Protein A surface was conducted using 10 mM glycine-HCl pH 1.5. The signal from the reference channel Fc1 (no receptor) was subtracted from that of Fc2, Fc3 and Fc4 to correct for differences in non-specific binding to a reference surface.
(§3) Controls were used to ensure the integrity of the receptors during the Biacore run.

[2] = molecular target: T2, Fc tagged mouse TNFR2 (Sino Biological); assay: as above
Method: as §1, §2, §3

[3] = molecular target: T3, Fc tagged human TNFR1 (Sino Biological); assay: SPR, Biacore T200 single cycle kinetics, receptor-Fc captured on Protein A chip, TNF 1.67-15 nM
Method: as §1, §2

[4] = molecular target: T4, Fc tagged mouse TNFR1 (Sino Biological); assay: as above
Method: as §1, §2

[5] = molecular target: T3, Fc tagged human TNFR1 (Sino Biological); assay: SPR, Biacore T200 multi cycle kinetics, receptor-Fc captured on Protein A chip, TNF 1.25-40 nM, 1:1 model
Method: (§4) Multi cycle kinetics analysis of binding to hTNFR1, hTNFR2, mTNFR1 and mTNFR2 was performed on the 10 lead variants using a Biacore T200 (serial no. 1909913) instrument running Biacore T200 Evaluation Software V3.0.1 (Uppsala, Sweden) to characterise further the binding to these receptors.
(§5) As with the single cycle kinetics, receptor binding was assessed in two separate experiments. In the first set of experiments binding to hTNFR1 (Fc2), hTNFR2 (Fc3) and mTNFR1 (Fc4) was assessed. In the second set of experiments the extent of mTNF2 (Fc4) binding was assessed using hTNFR1 (Fc2) and hTNFR2 (Fc3) as controls. All receptors were diluted in running buffer to a concentration of ˜4 μg/mL and at the start of each cycle loaded onto Fc2, Fc3 and Fc4 of a Protein A CM5 chip and captured at a flow rate of 10 μL/min to give an RU of ˜40-100. The surface was then allowed to stabilise. All kinetic data was obtained using a flow rate of 75 μl/min to minimise any potential mass transfer effects. […] The association phase of TNF was monitored for 280 seconds and the dissociation phase was measured for 2100 seconds. […] Regeneration of the Protein A surface was conducted using two injections of 10 mM glycine-HCL pH 1.5 at the end of each cycle. The signal from the reference channel Fc1 was subtracted from that of Fc2, Fc3 and Fc4 to correct for differences in non-specific binding to a reference surface, and a global Rmax parameter was used in the 1-to-1 binding model.

[6] = molecular target: T4, Fc tagged mouse TNFR1 (Sino Biological); assay: as above
Method: as §4, §5

[7] = molecular target: T3, Fc tagged human TNFR1 (Sino Biological); assay: SPR, Biacore single cycle kinetics, stability study, before freezing (t=0)
Method: as §2
(§6) At day zero (prior to freezing) and following thawing on ice after 3 months and 1 year the following assays were performed: [0341] SDS-PAGE [0342] OD280 nm [0343] Single cycle Biacore for binding to hTNFR1, hTNFR2 and mTNFR1

[8] = molecular target: T4, Fc tagged mouse TNFR1 (Sino Biological); assay: as above
Method: as §2, §6

[9] = molecular target: T3, Fc tagged human TNFR1 (Sino Biological); assay: SPR, Biacore single cycle kinetics, stability study, after 1 year at -80° C.
Method: as §2, §6

[10] = molecular target: T4, Fc tagged mouse TNFR1 (Sino Biological); assay: as above
Method: as §2, §6

[11] = molecular target: T3, Fc tagged human TNFR1 (Sino Biological); assay: SPR, Biacore single cycle kinetics, stability study, after 1 year at -20° C.
Method: as §2, §6

[12] = molecular target: T4, Fc tagged mouse TNFR1 (Sino Biological); assay: as above
Method: as §2, §6

binding result [1] | binding result [2] | Kd [3] [pM] | Kd [4] [pM] | Kd [5] [pM] | Kd [6] [pM] | Kd [7] [pM] | Kd [8] [pM] | Kd [9] [pM] | Kd [10] [pM] | Kd [11] [pM] | Kd [12] [pM] | Binder
binds | binds |  |  |  |  |  |  |  |  |  |  | mouse TNF (mTNF), soluble protein expressed from pANT65 (ligand, UniProt P06804 80-235, looked up, not shown: C-terminal FLAG tag and His6 tag from vector pANT65) LRSSSQNSSDKPVAHVVANHQVEEQLEWLSQRANALLANGMDLKDNQLVVPADGLYLVYSQVLFKGQGCPDYVLLTHTVSRFAISYQEKVNLLSAVKSPCPKDTPEGAELKPWYEPIYLGGVFQLEKGDQLSAEVNLPKYLDFAESGQVYFGVIAL
 | no binding (tested: 15 nM) | 19.5 | 132 | 110 | 153 |  |  |  |  |  |  | TNF mutein B4 (ligand, Human TNF mutein, SESHDG at positions 84-89; not shown: C-terminal FLAG tag and His6 tag from vector pANT65) VRSSSHTPSDKPVAHVVANPQAEGQLQWLNRRANALLANGVELRDNQLVVPSEGLYLIYSQVLFKGQGCPSTHVLLTHTISRISESHDGKVNLLSAIKSPCQRETPEGAEAKPWYEPIYLGGVFQLEKGDRLSAEINRPDYLDFAESGQVYFGIIAL
no binding (tested: 15 nM) | no binding (tested: 15 nM) | 16.9 | 304 | 339 | 590 | 96.9 | 67 | 66.7 | 47.4 | 52.6 | 711 | TNF mutein B6 (ligand, Human TNF mutein, TGTYSY at positions 84-89; not shown: C-terminal FLAG tag and His6 tag from vector pANT65) VRSSSRTPSDKPVAHVVANPQAEGQLQWLNRRANALLANGVELRDNQLVVPSEGLYLIYSQVLFKGQGCPSTHVLLTHTISRITGTYSYKVNLLSAIKSPCQRETPEGAEAKPWYEPIYLGGVFQLEKGDRLSAEINRPDYLDFAESGQVYFGIIAL
no binding (tested: 15 nM) | no binding (tested: 15 nM) | 19.9 | 128 | 59.1 | 289 | 35.5 | 77.1 | 44.6 | 97.7 | 49.3 | 115 | TNF mutein B5 (ligand, Human TNF mutein, TGTYVD at positions 84-89; not shown: C-terminal FLAG tag and His6 tag from vector pANT65) VHSSSRTPSDKPVAHVVANPQAEGQLQWLNRRANALLANGVELRDNQLVVPSEGLYLIYSQVLFKGQGCPSTHVLLTHTISRITGTYVDKVNLLSAIKSPCQRETPEGAEAKPWYEPIYLGGVFQLEKGDRLSAEINRPDYLDFAESGQVYFGIIAL
no binding (tested: 15 nM) | no binding (tested: 15 nM) | 12.9 | 32.3 | 30.6 | 208 |  |  |  |  |  |  | TNF mutein C4 (ligand, Human TNF mutein, SHSVEG at positions 84-89; not shown: C-terminal FLAG tag and His6 tag from vector pANT65) VRSSSRTPSDKPVAHVVANPQAEGQLQWLNRRANALLANGVELRDNQLVVPSEGLYLIYSQVLFKGQGCPSTHVLLTHTISRISHSVEGKVNLLSAIKSPCQRETPEGAEAKPWYEPIYLGGVFQLEKGDRLSAEINRPDYLDFAESGQVYFGIIAL
no binding (tested: 15 nM) |  | 635 | 7350 | 462 | 5080 | 12 | 110 | 23 | 398 | 27.1 | 527 | TNF mutein F3 (ligand, Human TNF mutein, TTTYRL at positions 84-89; not shown: C-terminal FLAG tag and His6 tag from vector pANT65) VRSSSRTPSDKPVAHVVANPQAEGQLQWLNRRANALLANGVELRDNQLVVPSEGLYLIYSQVLFKGQGCPSTHVLLTHTISRITTTYRLKVNLLSAIKSPCQRETPEGAEAKPWYEPIYLGGVFQLEKGDRLSAEINRPDYLDFAESGQVYFGIVAL
no binding (tested: 15 nM) | no binding (tested: 15 nM) | 42.4 | 82.7 | 46.5 | 208 | 22 | 116 | 35.3 | 165 | 26.2 | 111 | TNF mutein F7 (ligand, Human TNF mutein, SETVVG at positions 84-89; not shown: C-terminal FLAG tag and His6 tag from vector pANT65) VHSSSRTPSDKPVAHVVANPQAEGQLQWLNRRANALLANGVELRDNQLVVPSEGLYLIYSQVLFKGQGCPSTHVLLTHTISRISETVVGKVNLLSAIKSPCQRETPEGAEAKPWYEPIYLGGVFQLEKGDRLSVEINRPDYLDFAESGQVYFGIIAL
